Measurements from publication doi:10.1101/2022.08.26.505460.

Biological target: FN3^WDR5-cpYFP fusion protein

“WD40-repeat protein 5 (WDR5) (from UniProt P61964 31-334) (natural protein)” gave a Kd of 727 nM.
